{"source": "paper PMC8429728", "about": "“TNK1 is a ubiquitin-binding and 14-3-3-regulated kinase that can be targeted to block tumor growth” (Nature Communications, 2021)", "key": {"[1]": {"target": "FLAG-TNK1 ΔUBA (1–580) (human) (UniProt Q13470)", "sequence (Q13470 1-580, stated change not applied)": "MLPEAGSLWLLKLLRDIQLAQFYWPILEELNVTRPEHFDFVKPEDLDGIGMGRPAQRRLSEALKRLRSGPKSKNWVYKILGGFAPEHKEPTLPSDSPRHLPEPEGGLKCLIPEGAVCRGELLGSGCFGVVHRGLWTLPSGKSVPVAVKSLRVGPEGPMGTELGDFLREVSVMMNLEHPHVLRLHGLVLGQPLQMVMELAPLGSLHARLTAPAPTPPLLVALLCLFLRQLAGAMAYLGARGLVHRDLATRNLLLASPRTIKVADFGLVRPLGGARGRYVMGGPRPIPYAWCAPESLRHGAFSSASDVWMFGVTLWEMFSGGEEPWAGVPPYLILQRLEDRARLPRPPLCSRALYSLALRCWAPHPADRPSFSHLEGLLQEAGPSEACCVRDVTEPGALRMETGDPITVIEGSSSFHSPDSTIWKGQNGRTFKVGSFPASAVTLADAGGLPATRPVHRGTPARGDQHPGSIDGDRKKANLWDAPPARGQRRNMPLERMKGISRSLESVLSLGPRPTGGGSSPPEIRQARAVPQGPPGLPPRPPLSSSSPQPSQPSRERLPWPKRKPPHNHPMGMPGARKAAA", "test": "co-IP; FLAG-TNK1 (WT or mutants) precipitated on anti-DYKDDDDK resin from HEK-293T lysate (10 mM HEPES KOH pH 7.5, 150 mM KCl, 0.01% IGEPAL), 1 h 4 °C, washed with PBS; immunoblotted for 14-3-3 or ubiquitin; in Fig. 2c cells treated with 1 uM kinase inhibitors for 4 h"}, "[2]": {"target": "Biotin-(4xPEG)-RNKGISRp… (human)", "test": "BLI; biotin-tagged peptide loaded on streptavidin biosensors; 14-3-3ζ 50–1000 nM, 4 s association, 120 s dissociation; 0.001% TBST; 30 °C; Kd = Koff/Kon, mean of 3 runs"}, "14-3-3ζ": {"target": "14-3-3ζ (UniProt P63104)", "test": "in vitro europium/Cy5 FRET binding assay"}}}
{"substance": "14-3-3 (endogenous, isoform not told) (from UniProt P63104 1-245) (natural protein)", "values": [{"measurement": "fold increase in interaction with 14-3-3 compared to WT TNK1", "setting": "[1]", "result": 4, "unit": "fold"}]}
{"substance": "14-3-3ζ (purified, from the GST-14-3-3ζ plasmid) (from UniProt P63104 1-245) (natural protein)", "values": [{"measurement": "Kd", "setting": "[2]", "result": 3.39, "unit": "µM"}]}
{"substance": "TNK1 (from UniProt Q13470) pS500/pS502/pS505 peptide", "values": [{"measurement": "binding against the reference", "setting": "14-3-3ζ; reference: pS502 mono-phosphorylated peptide, sites S500,S505", "result": "lost"}]}
{"substance": "TNK1 (from UniProt Q13470) pS502 peptide", "values": [{"measurement": "binding against the reference", "setting": "14-3-3ζ; reference: non-phosphorylated peptide, sites S502", "result": "gained"}]}
